B1: library; numbered along this chain (parent)
chain: MRKPRAAVGSGHRKQAASQEGRQKHAKNNSQAKPSACDGLARQPEEVVLQASVSSYHLFRDVAEVTAFRGSLLSWYDQEKRDLPWRRRAEDEMDLDRRAYAVWVSEVMLQQTQVATVINYYTGWMQKWPTLQDLASASLEEVNQLWAGLGYYSRGRRLQEGARKVVEELGGHMPRTAETLQQLLPGVGRYTAGAIASIAFGQATGVVDGNVARVLCRVRAIGADPSSTLVSQQLWGLAQQLVDPARPGDFNQAAMELGATVCTPQRPLCSQCPVESLCRARQRVEQEQLLASGSLSGSPDVEECAPNTGQCHLCLPPSEPWDQTLGVVNFPRKASRKPPREESSATCVLEQPGALGAQILLVQRPNSGLLAGLWEFPSVTWEPSEQLQRKALLQELQRWAGPLPATHLRHLGEVVHTFSHIKLTYQVYGLALEGQTPVTTVPPGARWLTQEEFHTAAVSTAMKKVFRVYQGQQPGTCMGSKRSQVSSPCSRKKPRMGQQVLDNFFRSHISTDAHSLNSAAQ

Variants of: B1
Experiment: 8OG:A repair function score (normalized; synonymous = 0, nonsense = -1) (normalized log-likelihood score); higher = more repair activity (WT-like)
Details: with 8OG:A DNA repair reporter (GFP) in HEK-293 MUTYH KO cells
Procedure, shortened: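 MUTYH knockout HEK-293 cells carrying lentiviral MUTYH cDNA NNN codon-scan libraries were grown with 10 pg/ml doxycycline and co-transfected with mCherry and a GFP reporter of 8OG:A repair. Viable mCherry+ cells were sorted at 72 h into GFP+ (repair) and GFP− bins, with three replicates per tile, and tile amplicons were sequenced. Rosace fitness scores for each tile were turned into a normalized repair function score anchored on the synonymous and nonsense distributions. Synonymous medians were set to 0 and nonsense medians to -1, and variants below 300 counts per million at the start were dropped.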

8OG:A repair function score: each site, then its substitutions
R279: E -0.233 | F -0.277 | I -0.172 | T -0.339 | C -0.251 | W -0.139 | V -0.344 | S -0.377 | H -0.0508 | K -0.0521 | P -1.12 | D -0.718 | Y -0.151 | L -0.146 | M -0.178 | A -0.278 | N -0.123 | G -0.388 | Q -0.155
G293: R -0.00692 | D -0.124 | T -0.0505 | I -0.0531 | C -0.0307 | P -0.0254 | S -0.0376 | E -0.0308 | Y -0.0734 | Q -0.00725 | L -0.0631 | V -0.0545 | H -0.05 | K -0.0447 | A -0.0268 | F -0.0692 | M -0.0432 | W 0.000227 | N -0.03
V284: Y -0.0139 | H -0.12 | S -0.0426 | D -0.0734 | E -0.033 | M -0.00894 | A 0.00964 | R -0.149 | F -0.00936 | W -0.0406 | P -0.32 | C -0.0207 | I -0.0683 | T 0.0102 | K -0.0279 | N -0.0944 | Q -0.0561 | G -0.236 | L -0.0493
E287: I -0.038 | Y -0.00218 | K -0.0128 | Q -0.114 | C -0.037 | S 0.005 | A -0.017 | F -0.0154 | M 0.0384 | V -0.04 | G -0.0256 | R -0.0601 | T -0.00299 | L -0.0229 | W -0.0668 | N -0.0363 | H -0.047 | P -0.121 | D -0.0111
R281: F -0.126 | T -0.16 | V -0.131 | Y -0.0264 | N -0.0901 | L -0.166 | D -0.447 | S -0.126 | W -0.105 | E -0.484 | K -0.09 | A -0.0465 | H 0.00153 | P -0.443 | M -0.0676 | G -0.264 | C -0.173 | Q -0.113 | I -0.176
L295: M -0.0314 | S -0.0013 | Q -0.0618 | K -0.0388 | T -0.00105 | W -0.0272 | N -0.00265 | R -0.0249 | Y -0.0185 | E -0.0096 | H -0.0248 | A -0.00496 | V 0.0106 | I 0.00398 | C -0.0222 | P 0.0289 | D -0.0433 | F -0.0139
Q282: P -0.526 | Y -0.0373 | N -0.0575 | R -0.0175 | E -0.0248 | L -0.0273 | C -0.0445 | S -0.0408 | M -0.0222 | W -0.0465 | H -0.0165 | G -0.0596 | V -0.0489 | I -0.0327 | D -0.125 | T -0.0623 | F -0.021 | K 0.0141 | A -0.0281
A280: T -0.13 | Q -0.761 | W -0.57 | V -0.0812 | G -0.137 | M -0.582 | D -0.649 | Y -0.51 | R -0.814 | L -0.262 | E -0.713 | H -0.731 | K -0.812 | P -0.965 | C -0.398 | F -0.597 | I -0.189 | N -0.632 | S -0.172
E285: R 0.00385 | T -0.0287 | F 0.000814 | P -0.129 | W 0.0108 | H -0.0454 | M -9.17e-05 | A 0.00663 | L -0.000221 | S 0.0138 | I -0.0117 | Y -0.0542 | C -0.00692 | Q -0.00364 | G -0.0139 | K -0.0741 | N -0.0168 | V 0.00347 | D -0.0239
S292: I 0.000296 | G -0.00959 | E -0.0389 | L -0.0154 | Q -0.0703 | N -0.0335 | A -0.0285 | T -0.0314 | P -0.0306 | H -0.00367 | Y 0.00788 | M -0.0481 | C -0.0199 | W -0.0286 | V -0.0158 | K -0.0316 | D -0.0297 | R -0.0254 | F -0.0271
Q286: T -0.00617 | N 0.0116 | V -0.0346 | I -0.0426 | H -0.0639 | C -0.00905 | S -0.023 | K -0.000545 | P -0.093 | A -0.00891 | W -7.92e-05 | M -0.0133 | Y -0.0193 | G -0.0661 | D -0.0961 | L -0.0175 | E -0.0273 | F -0.00865 | R 0.00446
S294: N 0.0126 | P -0.0152 | E 0.00208 | K -0.0502 | Y -0.0109 | R -0.00624 | I 0.00404 | M -0.0115 | V -0.0111 | T 0.00194 | G -0.00188 | Q -0.0283 | W -0.0117 | A -0.012 | H -0.0171 | C -0.00327 | L -0.0244 | F -0.0489 | D -0.0514
C278: R -1.27 | Y -0.972 | N -1.1 | V -1.16 | M -1.52 | S -1.07 | P -1.2 | Q -1.14 | T -1.15 | W -1.05 | K -1.26 | L -1.1
R283: F -0.16 | M -0.0516 | V -0.0935 | D -0.662 | K -0.0478 | T -0.308 | Y -0.0964 | G -0.364 | S -0.203 | A -0.145 | H -0.102 | N -0.173 | Q -0.0283 | I -0.0881 | L -0.0781 | W -0.115 | P -0.625 | E -0.246 | C -0.167
L289: H 0.0106 | C -0.0659 | E -0.00394 | I 0.00652 | S -0.0139 | Y -0.00792 | V -0.0422 | W -0.0271 | P -0.0119 | R -0.0177 | K -0.0314 | M -0.0277 | D -0.0394 | Q 0.015 | G -0.00218 | A 0.00592 | N -0.057 | T 0.0028 | F -0.00169
Q288: F -0.016 | G -0.0129 | Y -0.0255 | R -0.00978 | E -0.0177 | D -0.0736 | M -0.03 | K -0.0373 | S -0.0113 | C -0.0156 | H 0.00465 | V -0.068 | N 0.0202 | P -0.036 | L -0.0159 | A 0.00699 | T 0.00195 | W -0.0268 | I -0.0801
A291: E -0.125 | Q 0.00288 | I -0.0181 | H -0.0755 | F -0.0509 | K 0.00353 | T -0.0451 | R -0.0282 | M -0.0586 | Y 0.0195 | V -0.0187 | W -0.0221 | G -0.0909 | D -0.119 | C -0.0481 | N 0.0139 | S -0.000102 | P -0.0656 | L -0.0339
L290: Q -0.0401 | H -0.0116 | S -0.022 | Y -0.0918 | K 0.0241 | N 0.00556 | C -0.0194 | T 0.0127 | V -0.0591 | I 0.0122 | P -0.0572 | A -0.0163 | W -0.0672 | D -0.0753 | F -0.0363 | R 0.0252 | E -0.0564 | G -0.0171 | M -0.0856

Reference: the supplement of paper PMC11908140
